For the test, the target named is T1, Mycobacterium tuberculosis thiosulfate-sulfurtransferase SseA (Mycobacterium tuberculosis, UniProt P9WHF7 1-297).
T1 sequence: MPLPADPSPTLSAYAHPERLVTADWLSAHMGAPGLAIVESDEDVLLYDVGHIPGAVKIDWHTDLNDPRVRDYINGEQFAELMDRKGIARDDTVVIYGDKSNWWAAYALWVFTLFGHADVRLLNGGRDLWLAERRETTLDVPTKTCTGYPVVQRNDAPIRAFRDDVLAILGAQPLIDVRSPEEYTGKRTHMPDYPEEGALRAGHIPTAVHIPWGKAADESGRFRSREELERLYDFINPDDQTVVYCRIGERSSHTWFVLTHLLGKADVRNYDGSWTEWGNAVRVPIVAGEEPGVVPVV
The test is described as follows: ITC.

B1: SufEMtb (Rv3284), SufE-like protein of Mycobacterium tuberculosis (natural protein)
chain: MTAPASLPAPLAEVVSDFAEVQGQDKLRLLLEFANELPALPSHLAESAMEPVPECQSPLFLHVDASDPNRVRLHFSAPAEAPTTRGFASILAAGLDEQPAADILAVPEDFYTELGLAALISPLRLRGMSAMLARIKRRLREAD
For the molecule B1, the equilibrium dissociation constant (Kd) was determined as 3.3 µM, the dH was -11.6 kcal/mol and the “stoichiometry N” value turned out to be 1.

For the origin of these results see article doi:10.1101/2025.02.04.636439 (bioRxiv, 2025).
